Measured values from the supplement of paper PMC7125110.
± gives the standard error. For part of these data: This sample holds only a part of the variants without activity.

B1: glmS ribozyme (parent)
chain: AUAAAAGCGCCAGAACUACAGAAAUGUAGUUGACGAGGAGGAGGUUUAUCGAAUUUUCGGCGGAUGCCUCCAAA

What was measured:
Settings in all cases: with glucosamine-6-phosphate
[1] = variants of: B1; experiment: kcat; higher = faster cleavage; RNA array
Outline: (§1)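 Glucosamine-6-phosphate, from 40 μM to 10 mM in HEPES/KCl/Mg(OAc)2 buffer, was flowed over sequenced MiSeq chips carrying barcoded ribozyme variants transcribed in situ by E. coli RNA polymerase. A hybridised Cy3 probe tracked the variants at 37 °C as tiles were imaged over ~14 h. kobs, kcat and KM were obtained by fitting normalised per-tile medians to exponential decays and then applying weighted Michaelis–Menten fits across concentrations.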

[2] = variants of: B1; experiment: self-cleavage kobs at 10000 uM GlcN6P; higher = faster cleavage; RNA array
Outline: as §1

[3] = variants of: B1; experiment: KM; higher = weaker cofactor use; RNA array
Outline: as §1

[4] = variants of: B1; experiment: self-cleavage kobs at 40 uM GlcN6P; higher = faster cleavage; RNA array
Outline: as §1

[5] = variants of: B1; experiment: self-cleavage kobs at 160 uM GlcN6P; higher = faster cleavage; RNA array
Outline: as §1

[6] = variants of: B1; experiment: self-cleavage kobs at 640 uM GlcN6P; higher = faster cleavage; RNA array
Outline: as §1

[7] = variants of: B1; experiment: self-cleavage kobs at 2500 uM GlcN6P; higher = faster cleavage; RNA array
Outline: as §1

| Variant | kcat [1] | self-cleavage kobs at 10000 uM GlcN6P [2] | KM [3] | self-cleavage kobs at 40 uM GlcN6P [4] | self-cleavage kobs at 160 uM GlcN6P [5] | self-cleavage kobs at 640 uM GlcN6P [6] | self-cleavage kobs at 2500 uM GlcN6P [7] |
| --- | --- | --- | --- | --- | --- | --- | --- |
| C68G U69C | 1.67e-05 ± 1.9e-06 s⁻¹ | < 1e-05 s⁻¹ |  |  |  |  |  |
| G63C C71G | < 1e-05 s⁻¹ | < 1e-05 s⁻¹ | 222 ± 79 µM | < 1e-05 s⁻¹ | < 1e-05 s⁻¹ | < 1e-05 s⁻¹ |  |
| U65A U69A | 7.76e-05 ± 5.6e-06 s⁻¹ |  | 134 ± 50 µM |  | 4.06e-05 ± 1.5e-05 s⁻¹ | 6.97e-05 ± 1.3e-05 s⁻¹ | 7.08e-05 ± 1.2e-05 s⁻¹ |
| U65C C70G | 1.37e-05 ± 3.9e-06 s⁻¹ |  |  |  |  |  |  |
| A64G C67G | 0.000471 ± 1.9e-05 s⁻¹ | 0.000386 ± 3.6e-05 s⁻¹ | 2090 ± 180 µM |  |  | 0.000111 ± 1.5e-05 s⁻¹ | 0.000275 ± 6.1e-05 s⁻¹ |
| U65C C67A | 0.000111 ± 9.5e-06 s⁻¹ | 0.000106 ± 1.6e-05 s⁻¹ | 672 ± 220 µM |  |  | 6e-05 ± 1.4e-05 s⁻¹ | 7.82e-05 ± 2.1e-05 s⁻¹ |
| G66A C67A C71U | 0.00289 ± 0.0012 s⁻¹ | 0.002 ± 0.00029 s⁻¹ |  | 6.11e-05 ± 1.7e-05 s⁻¹ |  | 0.000304 ± 6.2e-05 s⁻¹ | 0.00101 ± 0.00048 s⁻¹ |
| A64G U65A | 0.00547 ± 0.00084 s⁻¹ | 0.00429 ± 0.00072 s⁻¹ | 1850 ± 410 µM | 0.000129 ± 2.2e-05 s⁻¹ | 0.000381 ± 7.6e-05 s⁻¹ | 0.00133 ± 0.00024 s⁻¹ | 0.00387 ± 0.00065 s⁻¹ |
| A64U C71G | 1.96e-05 ± 1.5e-06 s⁻¹ |  |  |  |  |  |  |
| U69G C71U | 4.96e-05 ± 1.4e-05 s⁻¹ | 3.11e-05 ± 9.4e-06 s⁻¹ |  |  | 7.88e-05 ± 2.1e-05 s⁻¹ | 9.65e-05 ± 2.5e-05 s⁻¹ | 6.25e-05 ± 1.2e-05 s⁻¹ |
| U65G C67U C68U | 9.98e-05 ± 3.8e-05 s⁻¹ | 6.91e-05 ± 2.9e-05 s⁻¹ |  |  |  |  | 5.84e-05 ± 1.3e-05 s⁻¹ |
| unchanged | 0.0712 ± 0.0079 s⁻¹ | 0.0644 ± 0.0021 s⁻¹ | 1990 ± 250 µM | 0.00143 ± 1.7e-05 s⁻¹ | 0.00462 ± 0.00025 s⁻¹ | 0.016 ± 0.00046 s⁻¹ | 0.0364 ± 0.0015 s⁻¹ |
| G62C C70A | 1.23e-05 ± 3.2e-06 s⁻¹ |  |  |  |  |  |  |
| C68G C70A | < 1e-05 s⁻¹ | < 1e-05 s⁻¹ |  | < 1e-05 s⁻¹ |  |  |  |
| C67G C71A | < 1e-05 s⁻¹ |  |  |  |  |  |  |
| U65G C71U | 0.00415 ± 0.00046 s⁻¹ | 0.00316 ± 0.00037 s⁻¹ | 2960 ± 430 µM | 5.93e-05 ± 7e-06 s⁻¹ | 0.000189 ± 3.4e-05 s⁻¹ | 0.000688 ± 0.00013 s⁻¹ | 0.00232 ± 0.00055 s⁻¹ |
| U65G C71G | 0.001 ± 0.00022 s⁻¹ | 0.000734 ± 0.00013 s⁻¹ | 3670 ± 1100 µM | 2.64e-05 ± 9.6e-06 s⁻¹ | 4.2e-05 ± 1e-05 s⁻¹ | 0.000145 ± 1.5e-05 s⁻¹ | 0.000413 ± 4.9e-05 s⁻¹ |
| G66C C68U C71G | < 1e-05 s⁻¹ |  |  |  | < 1e-05 s⁻¹ |  |  |
| C68U C71U | 0.000142 ± 7.2e-06 s⁻¹ | 0.000123 ± 6.6e-06 s⁻¹ | 1240 ± 180 µM |  |  | 4.62e-05 ± 4.3e-06 s⁻¹ | 0.000103 ± 7.4e-06 s⁻¹ |

| Variant | kcat [1] | self-cleavage kobs at 10000 uM GlcN6P [2] | KM [3] | self-cleavage kobs at 40 uM GlcN6P [4] | self-cleavage kobs at 160 uM GlcN6P [5] | self-cleavage kobs at 640 uM GlcN6P [6] | self-cleavage kobs at 2500 uM GlcN6P [7] |
| --- | --- | --- | --- | --- | --- | --- | --- |
| C68U C71A | 1.12e-05 ± 6.7e-07 s⁻¹ |  |  |  |  |  |  |
| U65C C68A | < 1e-05 s⁻¹ |  |  | < 1e-05 s⁻¹ |  |  |  |
| U69G C70U | 4.03e-05 ± 6.8e-06 s⁻¹ | 2.88e-05 ± 6.8e-06 s⁻¹ |  |  | 4.73e-05 ± 1.4e-05 s⁻¹ | 4.66e-05 ± 9.6e-06 s⁻¹ | 5.03e-05 ± 8.5e-06 s⁻¹ |
| G66A C70U | 0.0162 ± 0.0065 s⁻¹ | 0.0185 ± 0.0034 s⁻¹ |  | 0.00075 ± 0.0001 s⁻¹ | 0.00153 ± 0.00021 s⁻¹ | 0.00577 ± 0.00081 s⁻¹ | 0.00738 ± 0.0024 s⁻¹ |
| C67A U69C | 0.00359 ± 0.0017 s⁻¹ | 0.00665 ± 0.0025 s⁻¹ |  | 0.000527 ± 0.00011 s⁻¹ |  | 0.0019 ± 0.00079 s⁻¹ |  |
| G66C C71U | 0.000716 ± 9.4e-05 s⁻¹ | 0.000631 ± 0.00011 s⁻¹ | 975 ± 220 µM |  | 9.54e-05 ± 1.7e-05 s⁻¹ | 0.000335 ± 5e-05 s⁻¹ | 0.000494 ± 9.6e-05 s⁻¹ |
| C68G C71U | < 1e-05 s⁻¹ |  |  |  |  |  |  |
| A64U G66A C67U | 1.79e-05 ± 6.9e-06 s⁻¹ |  |  | < 1e-05 s⁻¹ |  |  |  |
| C70U C71U | 0.00193 ± 0.00073 s⁻¹ | 0.00146 ± 0.00021 s⁻¹ | 4150 ± 1900 µM | 3.19e-05 ± 5.6e-06 s⁻¹ | 8.1e-05 ± 8.1e-06 s⁻¹ | 0.000229 ± 1.8e-05 s⁻¹ | 0.000753 ± 0.00013 s⁻¹ |
| U65G C70U | 0.00416 ± 0.00036 s⁻¹ | 0.00315 ± 0.00024 s⁻¹ | 2980 ± 340 µM | 5.75e-05 ± 5e-06 s⁻¹ | 0.000203 ± 1.7e-05 s⁻¹ | 0.000728 ± 6e-05 s⁻¹ | 0.00238 ± 0.00036 s⁻¹ |
| U65G C70G | 0.000265 ± 5.4e-05 s⁻¹ | 0.000228 ± 2.3e-05 s⁻¹ | 1470 ± 600 µM |  | 4.76e-05 ± 7.4e-06 s⁻¹ | 7.04e-05 ± 6.8e-06 s⁻¹ | 0.000176 ± 1.3e-05 s⁻¹ |
| C67G C68G | 4.53e-05 ± 9.2e-06 s⁻¹ |  |  |  | 6.2e-05 ± 7.7e-06 s⁻¹ | 5.01e-05 ± 6.5e-06 s⁻¹ | 3.7e-05 ± 4.7e-06 s⁻¹ |
| C67A C70G | 3.41e-05 ± 3.9e-06 s⁻¹ | 3.34e-05 ± 5.8e-06 s⁻¹ |  |  |  | 4.26e-05 ± 9.9e-06 s⁻¹ | 2.92e-05 ± 7.8e-06 s⁻¹ |
| G63C C70A | 1.89e-05 ± 5.1e-06 s⁻¹ |  |  |  |  |  |  |
| G63C C70U | < 1e-05 s⁻¹ |  |  | < 1e-05 s⁻¹ |  |  | < 1e-05 s⁻¹ |
| G66A C68A | 0.000285 ± 7.9e-05 s⁻¹ | 0.000216 ± 4.2e-05 s⁻¹ |  |  |  | 0.000138 ± 2.7e-05 s⁻¹ | 0.000313 ± 5.4e-05 s⁻¹ |
| A64G U69G | 4.12e-05 ± 5.6e-06 s⁻¹ | 3.35e-05 ± 8.6e-06 s⁻¹ |  |  |  | 4.4e-05 ± 1.2e-05 s⁻¹ | 4.93e-05 ± 1.2e-05 s⁻¹ |
| U69A C71U | 7.42e-05 ± 1.9e-05 s⁻¹ | 4.27e-05 ± 1.7e-05 s⁻¹ |  |  | 3.69e-05 ± 1.3e-05 s⁻¹ | 9.28e-05 ± 1.6e-05 s⁻¹ | 8.39e-05 ± 1.6e-05 s⁻¹ |
